From article PMC5159831

Key:
[1] = target: recombinant TACE catalytic domain
MMP7 catalytic domain = target: T1, MMP7 catalytic domain
T1 sequence (P09237 whole entry, species assumed, looked up): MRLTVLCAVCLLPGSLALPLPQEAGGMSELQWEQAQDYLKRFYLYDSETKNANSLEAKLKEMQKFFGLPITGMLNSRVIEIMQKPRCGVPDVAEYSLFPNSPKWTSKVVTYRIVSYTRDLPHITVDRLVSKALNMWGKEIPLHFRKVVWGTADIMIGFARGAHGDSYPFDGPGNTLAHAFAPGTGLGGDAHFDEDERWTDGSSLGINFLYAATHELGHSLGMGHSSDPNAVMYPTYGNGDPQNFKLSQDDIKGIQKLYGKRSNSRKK

Chain of recombinant TACE catalytic domain (P78536 215-671): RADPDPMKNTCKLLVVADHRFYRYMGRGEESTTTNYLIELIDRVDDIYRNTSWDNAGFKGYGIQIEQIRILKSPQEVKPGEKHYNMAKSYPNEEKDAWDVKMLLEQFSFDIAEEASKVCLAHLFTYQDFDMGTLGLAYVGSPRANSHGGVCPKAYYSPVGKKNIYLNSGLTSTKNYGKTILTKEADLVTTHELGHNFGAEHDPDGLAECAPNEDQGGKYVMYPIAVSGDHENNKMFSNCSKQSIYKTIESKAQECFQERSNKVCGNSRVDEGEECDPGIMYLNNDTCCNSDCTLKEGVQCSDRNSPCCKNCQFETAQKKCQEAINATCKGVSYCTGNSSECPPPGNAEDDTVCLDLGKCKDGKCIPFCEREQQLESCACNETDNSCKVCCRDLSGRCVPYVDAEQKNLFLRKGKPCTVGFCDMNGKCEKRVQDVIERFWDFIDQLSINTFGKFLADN
Chain of MMP9 catalytic domain (P14780 20-707): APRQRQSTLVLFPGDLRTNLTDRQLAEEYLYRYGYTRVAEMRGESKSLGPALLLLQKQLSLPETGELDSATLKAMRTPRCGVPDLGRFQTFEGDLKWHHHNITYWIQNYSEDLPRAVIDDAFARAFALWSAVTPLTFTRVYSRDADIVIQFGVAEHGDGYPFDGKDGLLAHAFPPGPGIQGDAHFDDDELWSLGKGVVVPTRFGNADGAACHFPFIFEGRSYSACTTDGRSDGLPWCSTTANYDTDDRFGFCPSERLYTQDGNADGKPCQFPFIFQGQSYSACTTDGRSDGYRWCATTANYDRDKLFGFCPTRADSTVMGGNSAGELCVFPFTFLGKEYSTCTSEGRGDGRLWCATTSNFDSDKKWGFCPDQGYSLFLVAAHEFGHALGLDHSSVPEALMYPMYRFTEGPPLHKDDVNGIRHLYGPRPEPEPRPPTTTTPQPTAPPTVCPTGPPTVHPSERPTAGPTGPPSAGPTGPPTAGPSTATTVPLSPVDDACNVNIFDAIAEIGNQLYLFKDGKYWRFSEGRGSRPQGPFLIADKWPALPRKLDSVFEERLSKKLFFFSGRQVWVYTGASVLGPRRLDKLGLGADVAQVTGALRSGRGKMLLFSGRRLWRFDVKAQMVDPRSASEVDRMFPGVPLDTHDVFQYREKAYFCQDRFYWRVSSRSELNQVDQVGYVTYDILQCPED

Substance | IC50 of inhibition of the enzyme's hydrolysis of a fluorogenic peptide (10 nM MT1-MMP, Mca-PLGL-Dpa-AR 10 μM, 37 °C) (MT1-MMP catalytic domain) [µM] | IC50 of inhibition of the enzyme's hydrolysis of a fluorogenic peptide (10 nM TACE, 37 °C) [1] [µM] | IC50 of inhibition of the enzyme's hydrolysis of a fluorogenic peptide (10 nM MMP9, Mca-PLGL-Dpa-AR 10 μM, 37 °C) (MMP9 catalytic domain) [µM] | IC50 of inhibition of the enzyme's hydrolysis of a fluorogenic peptide (10 nM MMP7, Mca-PLGL-Dpa-AR 10 μM, 37 °C) (MMP7 catalytic domain) [µM]
TACE prodomain (TPD) R58A (from UniProt P78536 23-214) (domain or fragment) | 4.65 | 0.307 | 4.34 | –
TACE prodomain double mutant R58A/C184A (TPD-DM) (from UniProt P78536 23-214) (domain or fragment) | – | 0.018 | – | 5.44
